Values quoted from earlier work, collected in publication PMC3713533.

Target: VWF73 VWF73 (Homo sapiens) (UniProt P04275)
Chain of UniProt P04275 (P04275 1596-1668): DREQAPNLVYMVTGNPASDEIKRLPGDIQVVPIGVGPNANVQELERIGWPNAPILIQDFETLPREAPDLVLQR

ADAMTS13 TSP1 repeat 1 (from UniProt Q76LX8)
Kd: 136 nM
